Source: the supplement of paper PMC10126150
± gives the standard deviation of the averaged measurements.

Tested on: ATP
Experiment: switch fluorescence ratio, 500 uM ATP over buffer (Cy3 cluster intensity, sum of 5 cycles each) (fold (ratio)); higher = stronger signal-on switching upon ATP binding; sequences stand for … in TCGTCGGCAGCGTCAGATGTGTATAAGAGACAGTTTTTTTTTTTTTTTTTTTTTTTTT…TC
Settings: aptamer strand: ATP DNA aptamer (quencher-CACCTGGGGGAGTATTGCGGAGGAAGG + anchor), 100 nM annealed; ATP concentration: 500 uM
In short: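 Switching-strand clusters labelled with Cy3 on a modified Illumina MiSeq flow-cell were annealed to 100 nM quencher-labelled ATP aptamer, imaged in selection buffer, and re-imaged after 15 min with 500 uM ATP at 22 °C. This was done over five cycles with NaOH stripping and re-annealing in between. The fluorescence ratio is summed target-cycle over summed buffer-cycle Cy3 intensity per cluster, averaged per switch-domain sequence, excluding clusters outside 100-1000 RFU.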
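Further: ATP exposure 15 min at 22 °C before imaging.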

| Sequence | switch fluorescence ratio |
| --- | --- |
| GGGATCGGTG | 0.995 ± 0.016 |
| GGGATCTGCG | 0.95 ± 0.017 |
| GGGATGAGGG | 0.97 ± 0.037 |
| GGGATGGACC | 1 ± 0.018 |
| GGGATGTTTG | 0.987 ± 0.017 |
| GGGATTAGCG | 0.957 ± 0.037 |
| GGGATTAGGA | 0.995 ± 0.052 |
| GGGATTAGGG | 1.02 ± 0.043 |
| GGGATTATTC | 0.9725 ± 0.0041 |
| GGGATTGGAG | 0.995 ± 0.016 |
| GGGATTGGCT | 1.01 ± 0.015 |
| GGGATTGGGC | 0.992 ± 0.022 |
| GGGATTGGGG | 1 ± 0.012 |
| GGGATTGGTT | 0.999 ± 0.047 |
| GGGATTGTAA | 0.982 ± 0.021 |
| GGGATTTCTG | 1.03 ± 0.04 |
| GGGATTTGCA | 0.9758 ± 0.0075 |
| GGGATTTTAA | 0.9753 ± 0.0091 |
| GGGCAAATTC | 1.08 ± 0.02 |
| GGGCAAATTG | 0.968 ± 0.028 |
| GGGCAACTGG | 1.11 ± 0.15 |
| GGGCAAGTTA | 1.009 ± 0.007 |
| GGGCAATGTC | 1.39 ± 0.072 |
| GGGCACTTTG | 1.0204 ± 0.00091 |
| GGGCAGACCA | 1.01 ± 0.011 |

| Sequence | switch fluorescence ratio |
| --- | --- |
| GGGCAGCCCG | 0.98 ± 0.014 |
| GGGCAGGATG | 1.05 ± 0.039 |
| GGGCAGGGGC | 1 ± 0.025 |
| GGGCAGGGGT | 1.45 ± 0.84 |
| GGGCAGGGTA | 0.9883 ± 0.0076 |
| GGGCAGGGTT | 0.999 ± 0.03 |
| GGGCATAACT | 1.04 ± 0.044 |
| GGGCATAATG | 1.02 ± 0.041 |
| GGGCATAGTT | 0.97 ± 0.018 |
| GGGCATCATG | 1.04 ± 0.011 |
| GGGCATCTAG | 0.9863 ± 0.0013 |
| GGGCATGAAA | 1.02 ± 0.021 |
| GGGCATGTCG | 1.13 ± 0.013 |
| GGGCATTGGG | 0.996 ± 0.043 |
| GGGCCAAGGG | 1.01 ± 0.022 |
| GGGCCACCGA | 0.975 ± 0.0041 |
| GGGCCACGTA | 0.971 ± 0.082 |
| GGGCCAGCTT | 0.988 ± 0.016 |
| GGGCCAGGGG | 1.21 ± 0.067 |
| GGGCCAGGGT | 1.02 ± 0.0054 |
| GGGCCATGGA | 1.05 ± 0.099 |
| GGGCCCGATT | 0.976 ± 0.037 |
| GGGCCCGGCG | 0.973 ± 0.049 |
| GGGCCCTGTT | 1.03 ± 0.021 |
| GGGCCGGGAC | 0.961 ± 0.01 |

| Sequence | switch fluorescence ratio |
| --- | --- |
| GGGCCTAGGA | 1.028 ± 0.0069 |
| GGGCCTGCGC | 1 ± 0.015 |
| GGGCCTGCTT | 0.97 ± 0.052 |
| GGGCCTGGGT | 1 ± 0.017 |
| GGGCCTGGTC | 1.02 ± 0.032 |
| GGGCCTTTAG | 1.02 ± 0.033 |
| GGGCGAAAAA | 0.987 ± 0.054 |
| GGGCGAATGG | 1.02 ± 0.029 |
| GGGCGCACGG | 0.992 ± 0.039 |
| GGGCGCCAGG | 1.33 ± 0.66 |
| GGGCGCGGGG | 1.01 ± 0.023 |
| GGGCGGAGGG | 0.998 ± 0.027 |
| GGGCGGCCGT | 1.02 ± 0.044 |
| GGGCGGGGAT | 1.01 ± 0.018 |
| GGGCGGGGCT | 0.994 ± 0.016 |
| GGGCGGGGGC | 1.02 ± 0.056 |
| GGGCGTAACT | 0.991 ± 0.041 |
| GGGCGTGGTG | 1.03 ± 0.011 |
| GGGCGTGTTG | 1.027 ± 0.01 |
| GGGCTAGTCG | 1.01 ± 0.034 |
| GGGCTATTTG | 0.978 ± 0.013 |
| GGGCTATTTT | 0.991 ± 0.031 |
| GGGCTCAACT | 0.9946 ± 0.0053 |
| GGGCTCTATC | 0.9913 ± 0.0025 |
| GGGCTCTGAC | 1.049 ± 0.0084 |

| Sequence | switch fluorescence ratio |
| --- | --- |
| GGGCTCTTGC | 0.98 ± 0.068 |
| GGGCTGATCT | 1.04 ± 0.045 |
| GGGCTGCATT | 1.01 ± 0.011 |
| GGGCTGGAAT | 1 ± 0.02 |
| GGGCTTGCAG | 0.9812 ± 0.0089 |
| GGGCTTGGGT | 1.08 ± 0.12 |
| GGGCTTGGTA | 1 ± 0.014 |
| GGGCTTGTGC | 0.987 ± 0.071 |
| GGGCTTTAAA | 1.01 ± 0.012 |
| GGGGAAACCT | 2.21 ± 0.77 |
| GGGGAAAGCA | 1 ± 0.015 |
| GGGGAAAGGG | 1 ± 0.034 |
| GGGGAAAGGT | 0.989 ± 0.029 |
| GGGGAACAGG | 1.05 ± 0.06 |
| GGGGAACCAT | 1.01 ± 0.039 |
| GGGGAACGGG | 1 ± 0.027 |
| GGGGAAGACG | 1.01 ± 0.082 |
| GGGGAAGCGA | 1.09 ± 0.038 |
| GGGGAAGCTT | 1.04 ± 0.055 |
| GGGGAAGTCT | 0.984 ± 0.093 |
| GGGGAAGTGG | 1 ± 0.026 |
| GGGGAATACG | 1.11 ± 0.048 |
| GGGGAATAGG | 0.9962 ± 0.0084 |
| GGGGAATCTA | 0.997 ± 0.022 |
| GGGGAATGAT | 0.98 ± 0.021 |

| Sequence | switch fluorescence ratio |
| --- | --- |
| GGGGACGAGT | 0.99779 ± 0.00098 |
| GGGGACGGCA | 1.01 ± 0.046 |
| GGGGACGGTG | 1.03 ± 0.048 |
| GGGGACTGAG | 0.983 ± 0.029 |
| GGGGACTTTC | 1.03 ± 0.017 |
| GGGGAGAAAG | 0.9964 ± 0.0029 |
| GGGGAGAGCG | 1.01 ± 0.034 |
| GGGGAGAGGA | 0.987 ± 0.037 |
| GGGGAGAGGG | 0.984 ± 0.029 |
| GGGGAGCGCG | 0.981 ± 0.035 |
| GGGGAGCGGG | 0.99834 ± 0.00014 |
| GGGGAGCGTC | 1.01 ± 0.032 |
| GGGGAGGCCA | 0.963 ± 0.031 |
| GGGGAGGCTG | 0.971 ± 0.039 |
| GGGGAGGGGT | 1.01 ± 0.054 |
| GGGGAGTGCG | 0.969 ± 0.01 |
| GGGGAGTGG | 1.01 ± 0.025 |
| GGGGATAACG | 0.981 ± 0.012 |
| GGGGATAATT | 1.05 ± 0.025 |
| GGGGATATGG | 1.01 ± 0.039 |
| GGGGATGAAG | 0.994 ± 0.014 |
| GGGGATGGGG | 1.02 ± 0.044 |
| GGGGATTTGC | 0.969 ± 0.023 |
| GGGGCACGGG | 1.02 ± 0.034 |
| GGGGCAGCGT | 0.999 ± 0.043 |

| Sequence | switch fluorescence ratio |
| --- | --- |
| GGGGCAGGAG | 1.01 ± 0.06 |
| GGGGCAGGTT | 0.977 ± 0.038 |
| GGGGCATTGG | 0.99 ± 0.011 |
| GGGGCCATGG | 0.9123 ± 0.006 |
| GGGGCCCACG | 1.002 ± 0.006 |
| GGGGCCCCGT | 1.016 ± 0.0043 |
| GGGGCCCGGC | 0.904 ± 0.013 |
| GGGGCCGTAA | 0.992 ± 0.025 |
| GGGGCCTTTA | 0.9592 ± 0.0049 |
| GGGGCGAAGG | 0.999 ± 0.038 |
| GGGGCGACGT | 0.977 ± 0.023 |
| GGGGCGAGG | 0.994 ± 0.053 |
| GGGGCGGGGC | 1.01 ± 0.014 |
| GGGGCGTATC | 1.01 ± 0.04 |
| GGGGCGTGCG | 1.01 ± 0.02 |
| GGGGCGTTGG | 0.993 ± 0.033 |
| GGGGCGTTTG | 0.961 ± 0.057 |
| GGGGCTACTT | 1.02 ± 0.013 |
| GGGGCTATCA | 0.9712 ± 0.0081 |
| GGGGCTATCT | 1.33 ± 0.42 |
| GGGGCTATGG | 1.02 ± 0.045 |
| GGGGCTCATG | 0.99 ± 0.014 |
| GGGGCTCTCG | 0.99 ± 0.012 |
| GGGGCTTAAA | 1.04 ± 0.047 |
| GGGGCTTAGC | 1.02 ± 0.046 |

| Sequence | switch fluorescence ratio |
| --- | --- |
| GGGGCTTGGT | 1.01 ± 0.034 |
| GGGGGAAGAA | 1 ± 0.028 |
| GGGGGAAGCC | 0.98 ± 0.024 |
| GGGGGAATAC | 2.26 ± 0.5 |
| GGGGGACCGT | 1.01 ± 0.024 |
| GGGGGACGAC | 0.969 ± 0.035 |
| GGGGGACTCT | 0.986 ± 0.041 |
| GGGGGACTGA | 0.991 ± 0.03 |
| GGGGGACTGC | 1.01 ± 0.048 |
| GGGGGAGACG | 1.03 ± 0.075 |
| GGGGGAGATG | 0.992 ± 0.028 |
| GGGGGAGCGG | 0.992 ± 0.033 |
| GGGGGAGGTG | 1.03 ± 0.048 |
| GGGGGAGTCT | 1.11 ± 0.087 |
| GGGGGAGTGC | 1.06 ± 0.12 |
| GGGGGAGTTT | 1.01 ± 0.011 |
| GGGGGATCCG | 0.983 ± 0.019 |
| GGGGGATGTG | 1.012 ± 0.004 |
| GGGGGATTGC | 1.02 ± 0.066 |
| GGGGGCACGT | 1.017 ± 0.0074 |
| GGGGGCAGAT | 0.97 ± 0.018 |
| GGGGGCAGGG | 0.998 ± 0.065 |
| GGGGGCATTA | 0.999 ± 0.016 |
| GGGGGCCAGC | 1.01 ± 0.02 |
| GGGGGCCCCA | 1.01 ± 0.022 |

| Sequence | switch fluorescence ratio |
| --- | --- |
| GGGGGCCCGG | 1.03 ± 0.045 |
| GGGGGCGCCA | 1.02 ± 0.02 |
| GGGGGCGGTT | 1.02 ± 0.026 |
| GGGGGCTGCG | 1.04 ± 0.051 |
| GGGGGGAAGC | 1.04 ± 0.064 |
| GGGGGGAGCT | 1.02 ± 0.057 |
| GGGGGGAGGG | 1 ± 0.052 |
| GGGGGGAGTA | 1.01 ± 0.056 |
| GGGGGGCCGG | 0.996 ± 0.033 |
| GGGGGGCGAG | 0.9864 ± 0.0052 |
| GGGGGGCGGA | 1.01 ± 0.039 |
| GGGGGGCGTC | 1.02 ± 0.016 |
| GGGGGGCTTT | 0.986 ± 0.022 |
| GGGGGGGAGC | 1.01 ± 0.033 |
| GGGGGGGATG | 0.991 ± 0.029 |
| GGGGGGGGAA | 1.01 ± 0.063 |
| GGGGGGGGAT | 1.01 ± 0.029 |
| GGGGGGGGTG | 1.02 ± 0.068 |
| GGGGGGGGTT | 1 ± 0.042 |
| GGGGGGGTGT | 1.01 ± 0.05 |
| GGGGGGTAAT | 1.01 ± 0.026 |
| GGGGGGTACA | 1.01 ± 0.047 |
| GGGGGGTAGC | 0.9761 ± 0.0061 |
| GGGGGGTATA | 1 ± 0.048 |
| GGGGGGTCCG | 1.01 ± 0.074 |
